± gives the uncertainty stated by the source.

A short description of this data set: amyloid nucleation score (Sup35N fusion, yeast selection) (log enrichment); library NNK1; higher = more nucleation; inactive = no reads after selection. Put shortly: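 Psi-negative yeast expressed Sup35N fused to peptides of 20 random codons. They were induced 24 hours with 100 μM copper sulfate, grown 7 days at 30°C without adenine and uracil, and their plasmid inserts from input and output were Illumina-sequenced. The nucleation score is the DiMSum log enrichment of output over input reads, centred on the mode score of non-aggregating sequences. Sequences with under 100 input reads were excluded.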
The substance HCQVQHLTQFMWVIVMRTRD had an amyloid nucleation score of 3.5 ± 0.14.
As to VRSKLPPGSFDSFWGWWEKK, the amyloid nucleation score was -0.343 ± 0.45.
In turn, SLWNSCSSE yielded an amyloid nucleation score of 4.68 ± 0.064.
VNNIVRSICGIKGEVRFLCG yielded an amyloid nucleation score of 0.094 ± 1.2.
With FLNMASIFNFLHTNRF, the amyloid nucleation score was 0.054 ± 1.2.
As to QSMSCRAFVVTSRLVHWGTQ, the amyloid nucleation score is -0.438 ± 0.6.
For the substance DVFVY, the amyloid nucleation score was -0.273 ± 0.45.
As for FDIFVDLFFMGALSMRPAAQ, the amyloid nucleation score is -0.241 ± 1.1.
For the substance LSLKASDMRIGRYRSDKATF, the amyloid nucleation score worked out at 1.18 ± 0.79.
For LISNRPMW, the amyloid nucleation score turned out to be 0.29 ± 0.48.
With LRRGKLDLDHPLVNKWRKKG, the amyloid nucleation score is -0.005 ± 0.67.
RNIPGFVETVINGSCGALLT came in with an amyloid nucleation score of 0.636 ± 0.52.
The same measure for FDNLWRQYYVIGWILARAFS: -0.983 ± 0.9; for ADCPLCGTYNLSYCMVRLDI: 0.349 ± 0.28.
The substance RAGCPDVGRRLSCSRSVLPR showed an amyloid nucleation score of 0.789 ± 0.27.
The same measure for RPFRLYECCCDGELFLN: -0.997 ± 0.51.
Turning to DKRECFGLDLEIWSMVVWMW, the amyloid nucleation score was found to be 0.611 ± 0.8.
The same measure for HHVAVSLDANLNFFTLWLER: 3.81 ± 0.12.
Consider MIGNRY, for which the amyloid nucleation score came to 0.091 ± 0.26.
Turning to QGLADNKSSFKGV, the amyloid nucleation score was determined as 0.591 ± 1.
NLDYDVESRVTEVWGVLSGC had an amyloid nucleation score of 1.92 ± 0.56.
The same measure for CFSLWY: 0.089 ± 0.29; for GDFLIPRARDQFYRFSGFND: 0.863 ± 0.46; for ILGRYNNAVLGVGSEQWSVG: 0.287 ± 0.46.
The same measure for FVRVANMVAWYNASRRLR: “inactive”; for RTCAWVGQHATSLWPFNRGQ: 0.493 ± 0.77; for KNAYHFRG: 0.113 ± 0.97.
In turn, EECGLGCAVKA displayed an amyloid nucleation score of 0.188 ± 0.19.
YFCPLKCVMPENDCPFPMVM registered an amyloid nucleation score of 0.416 ± 0.25.
In the case of AFDQGGIYTVPSGKNFPCTL, the amyloid nucleation score was -0.186 ± 0.4.
Consider LCPGFNWESFLVKMVLHFFR, for which the amyloid nucleation score was -0.606 ± 0.75.
In the case of IHVAFHSLSQCGRCVYCSVL, the amyloid nucleation score stood at 3.25 ± 0.16.
To TLCPLDFHRDTARELCPRGV belongs 0.049 ± 0.4; to TVWSHCIEFFGHLRKLRSLL, 1.84 ± 0.5.
As for HTSFGVCVSVICFVLRWAYH, the amyloid nucleation score result was “inactive”.
For TDMLMLIMIRVSLIGRRTFQ, the amyloid nucleation score entry was “inactive”.
For LMDNCVRR, the amyloid nucleation score was -1.06 ± 1.9.
IRGTTRAFLANQGCDVLYTG: the amyloid nucleation score was -0.865 ± 0.86.
Take GRGSMLFW: the amyloid nucleation score came to 0.942 ± 0.58.
To TRFVVVVMIISQLRCLLCDM belongs 0.61 ± 1; to GSELCGVGARSQDSRIAGRV, -0.282 ± 0.49.
Regarding LVRLVVLLKEPGEDRFIIEH, the amyloid nucleation score was -0.427 ± 0.79.
Take GLIYTTSLMRVLNSVVGL: the amyloid nucleation score entry was “inactive”.
Take IRIKDTFESWYSLINEDLGH: the amyloid nucleation score entry was “inactive”.
As to RTPHVERGTGIGLEISSTEV, the amyloid nucleation score came out at 0.041 ± 0.97.
In turn, RNFLIVLPSVYRGPFI showed an amyloid nucleation score of 5.36 ± 0.064.
Turning to YSGRVTLWIVPMLHARH, the amyloid nucleation score was -0.114 ± 0.42.
In turn, KWNCLVSCRLCELYLIPLI had an amyloid nucleation score of 3.58 ± 0.081.
As for SWWPDGLNEMSG, the amyloid nucleation score was 1.11 ± 0.74.
In the case of SFIIVYY, the amyloid nucleation score was determined as 1.84 ± 0.19.
In the case of GTWNF, the amyloid nucleation score was -0.023 ± 0.55.
Consider DETWLSLQVNLLLFYSRMDM, for which the amyloid nucleation score is -0.153 ± 0.66.
Regarding VVVFVSE, the amyloid nucleation score was 0.997 ± 0.65.
On to GACHLGDDYFRSSVVVTKSA, for which the amyloid nucleation score worked out at 0.232 ± 0.39.
VGITDSNRVLILSGQIHGVM yielded an amyloid nucleation score of 0.6 ± 0.46.
The same measure for RNYPTRPYRGVINHLGFCRV: -1.06 ± 0.57; for YEFLIWVCPTALRRVVSSVV: 0.189 ± 0.74.
In turn, AKWPARSPSLQLGNFWFDTT had an amyloid nucleation score of 0.161 ± 0.59.
In turn, VNFYDLVL returned an amyloid nucleation score of 0.318 ± 0.46.
In the case of GYKRFYLLVKLYVFERINIA, the amyloid nucleation score is -0.244 ± 0.31.
Substance HSSNAAFCYAVTIYLQVLLV returned an amyloid nucleation score of 0.837 ± 0.66.
The same measure for SSSSYNSR: 0.97 ± 0.62; for KLGPVTYLYP: -0.03 ± 0.72; for LSISRCSGRAV: “inactive”.
RVLATKRRLQKRLHESVLLA gave an amyloid nucleation score of 0.34 ± 1.1.
HFGWNLGPMHTMKSSV returned an amyloid nucleation score of 0.464 ± 0.49.
Substance MPLAKSPLTLG yielded an amyloid nucleation score of 4.39 ± 0.062.
Regarding GNVGYLGVSRYLHLC, the amyloid nucleation score is -0.073 ± 0.41.
Turning to NGINSVRKDLLFYNLQR, the amyloid nucleation score was determined as 0.107 ± 1.1.
To LCNIITGVSSIGAYWSTKIL belongs 1.22 ± 0.57.
Take HYTFKDCSSPLSWEPQPLFP: the amyloid nucleation score was -0.32 ± 0.83.
Regarding IRSFPTV, the amyloid nucleation score was 0.075 ± 0.47.
Substance SGQMSLWSYL had an amyloid nucleation score of 0.781 ± 0.59.
Turning to SGLGTNKRSTPWYHSRFEGQ, the amyloid nucleation score was 0.036 ± 0.47.
MLLPSYVEF showed an amyloid nucleation score of 1.46 ± 0.34.
With EYVVRYSCMWRE, the amyloid nucleation score came out at 0.485 ± 1.2.
Turning to RCCALTYPLFKHLG, the amyloid nucleation score came out at 0.573 ± 0.43.
Substance AASTNSGR registered an amyloid nucleation score of 0.305 ± 0.68.
Turning to KEDAIIWVYNKSVSMRIFVQ, the amyloid nucleation score was -0.104 ± 0.46.
GDFSGSDVHLSFLF came in with an amyloid nucleation score of 0.541 ± 0.4.
Regarding VSTLA, the amyloid nucleation score result is “inactive”.
The same measure for MTAGLHQ: 3.47 ± 0.082; for MLSMFGWISSIFVYYYLNKR: 0.571 ± 0.17.
With VICFWTLSRFYRGRD, the amyloid nucleation score is -1.13 ± 0.62.
Take VDDHDPKIGSMLPSIPNGVQ: the amyloid nucleation score is -0.571 ± 0.42.
The same measure for LQTSRHFSLRWWCMYSWGNS: 1.41 ± 0.51; for VAMLQFASFQSSW: -0.323 ± 0.39.
With DVYKKIFLRLNCYQVSMRIE, the amyloid nucleation score is -0.697 ± 0.27.
Regarding MGRQEASMKRCTSGDVGGWL, the amyloid nucleation score turned out to be 0.523 ± 0.78.
To FHSSGFVVYMLIVRGSPSMR belongs 0.218 ± 0.27; to CMYTEACNWWGKYNCVGRQL, 0.235 ± 0.32; to LLSGNGQRLSSEQTCRELVG, -0.727 ± 0.28.
On to FPDYVDTTFRQIWECLWFFP, for which the amyloid nucleation score entry is “inactive”.
The same measure for ISKISPFECGPVVAQ: 1.12 ± 0.73.
As to MSIAMDGYFYPSSAAPFFIT, the amyloid nucleation score was -0.156 ± 0.42.
In turn, AICRLDVVWVT showed an amyloid nucleation score of 0.135 ± 0.37.
Regarding YYFRFCREVIARLGMDMSSK, the amyloid nucleation score is -0.341 ± 0.29.
In the case of GGGEATLREFFKECGK, the amyloid nucleation score was -0.603 ± 0.35.
As for CDYAVGHNVDFYYLTSNPSG, the amyloid nucleation score was -0.301 ± 0.53.
For the substance NVWSKWCERGNSDPIVPQAA, the amyloid nucleation score was -0.458 ± 0.35.
In turn, SWRTCAPTWKVALFIWMCTS returned an amyloid nucleation score of 3.39 ± 0.17.
The same measure for TSYNIMFQ: -0.584 ± 1.2; for SSLWTCREVTDIFIHNCAMI: 1.21 ± 0.79; for FGMNLILHCTPTQRTYISPV: 2.83 ± 0.092.
Take PWYVIKV: the amyloid nucleation score is -0.055 ± 0.31.
As for CQIFELLSNVRVTLLIYNSG, the amyloid nucleation score was determined as 1.41 ± 0.19.
RIDTFTWSCKCLPPSSIWLL returned an amyloid nucleation score of 0.009 ± 0.76.
Consider HWVGFLRYTSIKDDHQFGSK, for which the amyloid nucleation score was -0.323 ± 0.51.
The same measure for VGRTNFYCYWFPCRSLDLLS: 5.8 ± 0.046; for RYAISYNLRVVGLISMYRNT: 0.655 ± 0.29.
NPSFNPWNDHHYCTSGMCML: the amyloid nucleation score was 0.562 ± 0.81.
For QWGTREYGIFLDIFVHVTVN, the amyloid nucleation score stood at 0.237 ± 0.56.
FVATNPVL came in with an amyloid nucleation score of 0.588 ± 0.42.
In the case of MSVVWSWMYFIKLDTFA, the amyloid nucleation score was -0.348 ± 0.23.
For FEECLM, the amyloid nucleation score is -0.059 ± 0.44.
In the case of DTKCMMENRAIVMFCIQGKH, the amyloid nucleation score came out at 0.827 ± 0.3.
The same measure for WWLRVVS: 0.041 ± 0.78; for LAYRR: 0.274 ± 0.63.
As to KQYPI, the amyloid nucleation score is -1.33 ± 2.4.
Substance SEAVCVRVQLAWDRLMGVRV showed an amyloid nucleation score of 0.966 ± 0.64.
As for LMLVHRVF, the amyloid nucleation score is -0.034 ± 0.51.
For SLEDLWTRVERIRASEPVLG, the amyloid nucleation score is -0.293 ± 0.92.
With SHLNHEGFRLIQCLIWSLHW, the amyloid nucleation score is 0.33 ± 0.54.
As for SDESKMCRMGYYLPALAIAW, the amyloid nucleation score is -0.173 ± 0.82.
SFSSSSLYSLVCRYHSIRWA came in with an amyloid nucleation score of 0.589 ± 0.28.
Regarding YFMTHRGLCRCISLSYNFKI, the amyloid nucleation score is -0.957 ± 0.98.
On to TPTTLKDYYPRAGNINRMTY, for which the amyloid nucleation score was -0.15 ± 0.28.
As for PVLWT, the amyloid nucleation score was -0.002 ± 0.53.
Turning to LSRTKGYC, the amyloid nucleation score was 0.558 ± 0.33.
As to LYWSQIEVVNPQTTEGLNRD, the amyloid nucleation score was -0.528 ± 0.61.
To GSMQQNSFREMEPRDSTGGA belongs -0.844 ± 0.94; to SIRSFMIVL, 3.49 ± 0.13.
To KVRIQGPTNVCVVRTMCGWF belongs 5.98 ± 0.056.
Consider GHVRFSMHRRSDVCKQGSND, for which the amyloid nucleation score is 0.91 ± 0.47.
Turning to TNPYSWNLYCGFLNTDWVV, the amyloid nucleation score worked out at 0.787 ± 0.85.
Consider LLSATFLLMSTCY, for which the amyloid nucleation score stood at 0.34 ± 0.29.
FIRTRLIIYLSEDGYPVA came in with an amyloid nucleation score of 1.31 ± 0.21.
FERCLNPGYCINFAGCESVV showed an amyloid nucleation score of 0.581 ± 0.51.
The same measure for SNCLDMTVTAW: “inactive”; for TPSIYRNVCDIEGLLSSRYL: 0.36 ± 0.54; for MRDLK: -0.405 ± 0.53.

Values taken from the supplement of paper PMC12042874.
